Non-standard residues stand in square brackets, D forms with d. No end group written: not given here. pS = N[C@@H](COP(=O)(O)O)C(=O)O; FAM = fluorescein label Where only a bound is given, the exact number is not on record here.

One may read the Kd as the concentration at which binding is half-saturated. A higher Kd goes with lower affinity.

Sequences and labels used below:
T1: FAM‐phospho‐TACC3^CID Y560A (human, UniProt Q9Y6A5 549-570, Y560A, fluorescein (FAM) label; phosphoserine at 558)
T1 construct: TACC3, human, aa549–570 (TACC3^CID); source: FAM‐labelled peptide (FAM‐TACC3 peptides: PPR, Cambridge; Almac, Craigavon)
T1 peptide (looked up): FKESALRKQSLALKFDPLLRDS

T2: FAM‐TACC3 549–570 phosphorylated on S558 (FAM‐phospho‐TACC3^CID) (human, UniProt Q9Y6A5 549-570, fluorescein (FAM) label; phosphoserine at 558)
T2 construct: TACC3, human, aa549–570 (TACC3^CID); also called pTACC3^CID; FAM‐labelled pTACC3^CID; source: FAM‐labelled peptide (FAM‐TACC3 peptides: PPR, Cambridge; Almac, Craigavon)
T2 peptide (looked up): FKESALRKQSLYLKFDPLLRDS

T3: FAM‐phospho‐TACC3^CID F563A (human, UniProt Q9Y6A5 549-570, F563A, fluorescein (FAM) label; phosphoserine at 558)
T3 construct: TACC3, human, aa549–570 (TACC3^CID); source: FAM‐labelled peptide (FAM‐TACC3 peptides: PPR, Cambridge; Almac, Craigavon)
T3 peptide (looked up): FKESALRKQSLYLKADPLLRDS

T4: FAM‐phospho‐TACC3^CID L559A (human, UniProt Q9Y6A5 549-570, L559A, fluorescein (FAM) label; phosphoserine at 558)
T4 construct: TACC3, human, aa549–570 (TACC3^CID); source: FAM‐labelled peptide (FAM‐TACC3 peptides: PPR, Cambridge; Almac, Craigavon)
T4 peptide (looked up): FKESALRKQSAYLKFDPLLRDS

T5: TACC3 552-567 pS558 (Homo sapiens, also: FAM-labelled, place not given here)
T5 chain: SALRKQ[pS]LYLKFDPLL

T6: TACC3 546-573 pS558 (Homo sapiens, phospho-Ser558; FAM-labelled)
T6 chain: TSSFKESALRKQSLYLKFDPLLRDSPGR

T7: CHC 1–574 (clathrin heavy chain propeller‐ankle fragment) (UniProt Q00610 1-574)
T7 chain: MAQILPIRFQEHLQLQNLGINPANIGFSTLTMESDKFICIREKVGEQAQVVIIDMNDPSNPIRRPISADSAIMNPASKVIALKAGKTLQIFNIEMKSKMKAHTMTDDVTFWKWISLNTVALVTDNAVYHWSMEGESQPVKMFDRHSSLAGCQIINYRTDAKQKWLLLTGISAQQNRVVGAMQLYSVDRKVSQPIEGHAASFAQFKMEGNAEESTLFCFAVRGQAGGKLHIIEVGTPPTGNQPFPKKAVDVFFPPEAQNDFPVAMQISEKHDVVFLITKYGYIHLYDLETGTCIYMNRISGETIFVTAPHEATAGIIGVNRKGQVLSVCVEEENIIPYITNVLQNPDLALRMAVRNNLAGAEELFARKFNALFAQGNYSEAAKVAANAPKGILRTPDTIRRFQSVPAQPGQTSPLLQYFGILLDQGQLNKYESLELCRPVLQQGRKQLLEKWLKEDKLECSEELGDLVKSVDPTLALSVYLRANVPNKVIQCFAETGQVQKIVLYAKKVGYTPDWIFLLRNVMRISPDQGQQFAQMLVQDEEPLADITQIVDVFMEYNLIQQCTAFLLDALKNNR

T8: Aurora‐A 122–403 D274N (human, UniProt O14965 122-403, D274N)
T8 construct: also called Aurora‐A^KD D274N; source: expressed and purified as described in previous work (Burgess et al, 2015)
T8 sequence (looked up): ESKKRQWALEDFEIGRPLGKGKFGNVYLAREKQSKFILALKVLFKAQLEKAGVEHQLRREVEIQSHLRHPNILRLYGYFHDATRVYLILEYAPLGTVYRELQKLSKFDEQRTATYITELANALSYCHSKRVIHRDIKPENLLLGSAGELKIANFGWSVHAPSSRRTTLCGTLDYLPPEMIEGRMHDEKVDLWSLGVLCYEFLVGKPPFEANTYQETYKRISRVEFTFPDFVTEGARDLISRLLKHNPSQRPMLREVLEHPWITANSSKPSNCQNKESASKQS

B1: CHC 1–574 (clathrin heavy chain propeller‐ankle fragment) (domain or fragment, UniProt Q00610 1-574, looked up)
chain: T7 chain
notes: source: modified pGEX vector
B2: FAM‐non‐phosphorylated TACC3^CID (aa549–570) (peptide, UniProt Q9Y6A5 549-570, looked up)
peptide: {FAM}-FKESALRKQSLYLKFDPLLRDS
notes: TACC3, human, aa549–570 (TACC3^CID); also called unphosphorylated TACC3^CID peptide; S558; source: FAM‐labelled peptide (FAM‐TACC3 peptides: PPR, Cambridge; Almac, Craigavon)
B3: FAM‐phospho‐TACC3^CID R555A, K556A (peptide)
peptide: {FAM}-FKESALAAQ[pS]LYLKFDPLLRDS
B4: FAM‐phospho‐TACC3^CID L566A, L567A (peptide)
chain: {FAM}-FKESALRKQ[pS]LYLKFDPAARDS
B5: ^13C^15N TACC3 519–540 (domain or fragment, human, UniProt Q9Y6A5 519-540, looked up)
chain: ELKEESFRDPAEVLGTGAEVDY
modifications: also: 13C, 15N labelled
notes: TACC3, human, aa519–540 (stop codon at residue 541 of pETM6T1 TACC3 519–563); source: expressed and purified as described for 13C15N‐TACC3 519–563 (Burgess et al, 2015)

Data set [1] addresses WT Aurora‐A (of the FP assays) (human) (UniProt O14965).
A short description of data set [2]: NMR chemical shift index analysis of TACC3 549–570 helicity. Conditions: 2 mM peptide, 20 mM Tris pH 7.2, 50 mM NaCl, 290 K, αH and αC secondary shifts. It counts as physicochemical. An excerpt: We used NMR spectroscopy to determine the extent to which these α‐helices are present in TACC3 in the absence of binding partners in solution. Chemical shift index (CSI) plots were created for phosphorylated and unphosphorylated TACC3^CID following standard methods (Fig 7D and E; Wishart & Sykes, 1994). In addition to calculating α‐proton chemical shifts we also measured secondary chemical shifts for α‐carbons. After the type of amino acid, the main contribution to chemical shifts of α‐carbons is the ψ angle and thus the backbone conformation. Proximity of charges or aromatic side chains which can strongly affect proton chemical shifts has virtually no effect on the chemical shifts of α‐carbons which makes them very robust probes of backbone conformation. […] We concluded that phosphorylation of S558 increases the propensity for α‐helix formation in TACC3, and we examined the structure to identify the mechanism.
For analysis of TACC3 549–570 helicity, synthetic peptides were weighed in to give a sample concentration of 2 mM in 20 mM Tris pH 7.2 and 50 mM NaCl. Spectra were recorded at a temperature of 290 K on a Bruker Avance‐Neo 600 MHz spectrometer equipped with a prodigy cryoprobe. Peptides were assigned using 2D NOESY, TOCSY and 13C HSQC spectra recorded with watergate and gradient coherence selection, respectively. […]

The target in data set [3] is FAM‐TACC3 522–536 R526A (human) (UniProt Q9Y6A5). Description: fluorescence polarisation; FAM‐TACC3 peptides with Aurora‐A; performed as in Richards et al, 2016; triplicate; one‐site total binding fit; Kd ± SE. (In general: In fluorescence polarisation assays a small probe gives low polarisation when free and higher when bound to something large.)
In data set [4] the target is FAM‐TACC3 522–536 F525A (human) (UniProt Q9Y6A5). Described as above.
Data set [5] has as its target FAM‐TACC3 522–536 (WT site 1 peptide) (human) (UniProt Q9Y6A5). The description is as above.
The target in data set [6] is FAM‐WT TACC3 519–570 (human) (UniProt Q9Y6A5). The description is as above.
In data set [7] the target is FAM‐TACC3 522–536 L532A (human) (UniProt Q9Y6A5). Described as above.
The target of data set [8] is FAM‐TACC3 522–536 phosphorylated on T534 (human) (UniProt Q9Y6A5). Described as above.
Data set [9] addresses T1, FAM‐phospho‐TACC3^CID Y560A. As to the kind of experiment: fluorescence polarisation; CHC proteins serially diluted in 20 mM HEPES–NaOH pH 7.5, 200 mM NaCl, 5 mM DTT; 50 nM FAM‐labelled TACC3 peptide; 30 min at room temperature; read at 25°C. Conditions: both partners purified.
Data set [10] addresses T2, FAM‐TACC3 549–570 phosphorylated on …. The description is as above. Conditions: both partners purified.
Data set [11] deals with T3, FAM‐phospho‐TACC3^CID F563A. The description is as above. Conditions: both partners purified.
The target in data set [12] is T4, FAM‐phospho‐TACC3^CID L559A. The description is as above. Conditions: both partners purified.
Another data set concerns the target T5, TACC3 552-567 pS558. Description: FP.
The target of the next data set is T6, TACC3 546-573 pS558. As to the kind of experiment: FP.
The target of data set [13] is The R555A mutation alone or in combination with K556A (FAM‐phospho‐TACC3^CID peptides). As to the kind of experiment: fluorescence polarisation; CHC proteins serially diluted in 20 mM HEPES–NaOH pH 7.5, 200 mM NaCl, 5 mM DTT; 50 nM FAM‐labelled TACC3 peptide; 30 min at room temperature; read at 25°C.
In data set [14] the target is B1. Described as above. Conditions: both partners purified.
For data set [15], the target named is T7, CHC 1–574 (clathrin heavy chain …). Description: FP.
For data set [16] the target is unchanged. Description: FP.
The target in the next data set is T8, Aurora‐A 122–403 D274N. Description: NMR titration; 13C/15N‐labelled TACC3 peptide (300 μM) alone and in complex with Aurora‐A 122–403 D274N; 20 mM KPO4 pH 7.0, 50 mM NaCl, 1 mM DTT; 298 K; chemical shift perturbation. Conditions: both partners purified.

As to “TACC3 519–563‐H6c (WT TACC3^N‐ACIDH6c) (from UniProt Q9Y6A5 519-563) (domain or fragment)”, the 32P‐ATP kinase assay with MBP as substrate: stimulation of Aurora‐A activity in data set [1] is 8 fold.

Consider “FKESALRKQSLYLKFDPLLRDS [phosphorylated peptide, synthetic TACC3 549–570 peptide phosphorylated at S558, used for NMR]”, for which the “propensity for helix formation (CSI)” value in data set [2] is recorded as “much higher propensity”.

“WT Aurora‐A (of the FP assays) (from UniProt O14965 122-403) (domain or fragment)”: the Kd in data set [3] turned out to be 49 µM; in data set [4], 2300 µM; in data set [5] it was 20 µM; in data set [6], 3 µM; in data set [7] it was 251 µM; in data set [8], 14 µM.

With “FKESALRKQSLYLKFDPLLRDS [unphosphorylated peptide, synthetic TACC3 549–570 peptide, unphosphorylated, used for NMR]”, the “propensity for helix formation (CSI)” value in data set [2] is listed as “tendency towards helix formation”.

For the molecule B1, the “fold reduction in affinity against WT” value is not below 4 fold in data set [9], not below 4 fold in data set [11], not below 4 fold in data set [12] and 4 to 5 fold in data set [13]. For the same molecule, the “fold increase in affinity against non‐phosphorylated TACC3^CID” value in [10] was found to be 4 fold. The Kd in the data set with TACC3 552-567 pS558 was determined as 48 µM; in the data set with TACC3 546-573 pS558, 39 µM.

Take B2: binding in data set [14] was characterised by a dissociation constant (Kd) of 216 µM.

In [15], B3 had a Kd of 209 µM.

Take B4: the Kd in data set [16] is 345 µM.

For the molecule B5, the binding result in the data set with Aurora‐A 122–403 D274N was “binds”.

These data come from publication PMC5897774, “Mitotic spindle association of TACC3 requires Aurora‐A‐dependent stabilization of a cryptic α‐helix” (The EMBO Journal, 2018).
